± gives the standard deviation of the averaged measurements.
B1: library; a variant is named by its letters at N, in order (parent)
chain: GCUGUCACCGGUGCUUGGUACGUUAUAUUCAGCCGGUCUGAUGAGUCUNNNNNNAGACGAAACAGC

Experiments:
[1] = variants of: B1; assay: FACS-Seq fitted mean relative fluorescence mCherry/BFP without ligand (log10 relative fluorescence); HEK293T overexpressing SLC46A1; higher = higher reporter protein expression; conditions: without (6R,S)-folinic acid; ligand present: no
How it was run: (§1)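 Fluorescence comes from a normal fit to bin counts, normalized against controls. HEK293T libraries lentivirally given a ribozyme-switch mCherry reporter and an EF1α-BFP marker were enriched, incubated 48 h with or without ligand, and sorted by mCherry/BFP into 6 bins. Bin genomic DNA was PCR-amplified, barcoded and sequenced on MiSeq. The log10(mCherry/BFP) mean was scaled to five spiked-in control ribozymes.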

[2] = variants of: B1; assay: normalized RNA/DNA level without ligand (relative to sTRSVctl = 100) (log10 (% of sTRSVctl)); HEK293T overexpressing SLC46A1; higher = less ribozyme self-cleavage, higher mRNA level; conditions: without (6R,S)-folinic acid; ligand present: no
Method: (§2)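 Hammerhead (sTRSV) ribozyme switch libraries with a ligand aptamer grafted on stem I and a randomized N4-6 loop II, cloned into the 3' UTR of mCherry and transiently transfected into HEK293T cells; RNA-Seq 72 h post transfection with ligand added 1 h before transfection; RNA read count / plasmid DNA read count normalized to the non-cleaving sTRSVctl (x100), log10; sequences with >100 DNA reads. FACS-Seq: lentiviral library sorted into 6 bins after 48 h ligand, log-normal fit mean of mCherry/BFP scaled to controls. Printed sequences are partial switch sequences.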

[3] = variants of: B1; assay: FACS-Seq fitted mean relative fluorescence mCherry/BFP with ligand (log10 relative fluorescence); HEK293T overexpressing SLC46A1; ligand concentration (+) FACS-Seq: 6 mM; higher = higher reporter protein expression; conditions: with (6R,S)-folinic acid; ligand present: yes
How it was run: as §1

[4] = variants of: B1; assay: normalized RNA/DNA level with ligand (relative to sTRSVctl = 100) (log10 (% of sTRSVctl)); HEK293T overexpressing SLC46A1; ligand concentration (+) RNA-Seq: 6 mM; higher = less ribozyme self-cleavage, higher mRNA level; conditions: with (6R,S)-folinic acid; ligand present: yes
Method: as §2

Variant	FACS-Seq fitted mean (log10) [1]	normalized RNA/DNA level without ligand (log10) [2]	FACS-Seq fitted mean (log10) [3]	normalized RNA/DNA level with ligand (log10) [4]
AAUGAA	0.442 ± 0.1	1.956 ± 0.0073	0.46 ± 0.055	2 ± 0.029
AAUCGC	0.375 ± 0.075	2.027 ± 0.017	0.448 ± 0.18	2.01 ± 0.029
AAUCGG	0.494 ± 0.13	1.94 ± 0.017	0.573 ± 0.06	2.01 ± 0.027
UAUAUG	0.194 ± 0.045	1.75 ± 0.018	0.678 ± 0.12	1.97 ± 0.035
UAGGGU	0.607 ± 0.2	1.885 ± 0.015	0.604 ± 0.026	1.98 ± 0.049
UAGGGG	0.0613 ± 0.073	1.648 ± 0.0041	0.172 ± 0.14	1.97 ± 0.04
UAGGGA	0.295 ± 0.13	1.8512 ± 0.0012	0.501 ± 0.29	2 ± 0.03
AAUACC	0.72 ± 0.071	2.028 ± 0.004	0.469 ± 0.062	2.03 ± 0.031
AAUACU	0.3 ± 0.014	1.995 ± 0.017	0.384 ± 0.13	1.99 ± 0.026
CAGGCU	0.511 ± 0.14	2.055 ± 0.0024	0.544 ± 0.066	2.01 ± 0.036
GAGUCA	-0.101 ± 0.0028	1.998 ± 0.011	-0.24 ± 0.16	2.01 ± 0.0086
GAGUCC	0.0836 ± 0.051	2.04 ± 0.027	0.569 ± 0.064	2.04 ± 0.03
AAUCAG	0.0995 ± 0.041	1.969 ± 0.0032	0.228 ± 0.25	2.02 ± 0.045
UAUACC	0.255 ± 0.057	2.011 ± 0.0036	0.126 ± 0.21	2.018 ± 0.014
UAUACG	0.496 ± 0.089	1.76 ± 0.018	0.905 ± 0.26	1.96 ± 0.02
UAUACU	0.4 ± 0.2	1.9765 ± 0.0012	0.253 ± 0.07	1.99 ± 0.015
CAGGUG	0.231 ± 0.12	1.96 ± 0.025	0.385 ± 0.089	1.992 ± 0.016
CAGGUA	0.0884 ± 0.016	1.667 ± 0.0023	0.0948 ± 0.22	1.806 ± 0.013
